Data: patent publication US11428689B2, “Methods and uses for remotely triggered protease activity measurements” (Massachusetts Institute of Technology, priority 2016, dated 2022)
Where no end group is shown, it is not given here. [ ]: non-standard residue; d: D form. FAM = fluorescein

How the values were obtained:
[1] = test system: LS174T cells; assay: Secreted protease activity assay, conditioned media; assay type: cell-based, human; details: conditioned media from LS174T cells
Method: (§1) LS174T and CCD-18Co (ATCC CRL-1459) cells were cultured in Eagle's Minimal Essential Medium (ATCC) supplemented with 10% FBS (Gibco) and 1% penicillin-streptomycin (CellGro). Cells were passaged when confluence reached 80%. To isolate secreted proteases, after cells were plated, cells were washed and replaced in serum-free media. Conditioned media was collected 24 h later and exposed to C1-NPs to measure fluorescence dequenching.

[2] = molecular target: T1, MMP13 (Homo sapiens, UniProt P45452); assay: In vitro recombinant protease assay (fluorescence dequenching of NP-bound substrate); assay type: biochemical; details: for cleavage of substrate by MMP13: unmodified substrate on particle
T1 construct: purchased Enzo Life Sciences
Method: (§2) C1-NP complexes sensitive to MMP cleavage were mixed with 1% (wt/vol) BSA (Sigma) and incubated with recombinant proteases (MMPs and ADAMs: Enzo Life Sciences; Clotting proteases: Haematologic Technologies) in a final volume of 100 μL in enzyme-specific buffers (MMP buffer: 50 mM Tris, 150 mM NaCl, 5 mM CaCl2, 1 μM ZnCl2, pH 7.5; Clotting proteases: PBS) in a 384-well plate for time-lapse fluorimetry to measure dequenching from homoquenched peptides at 37° C. (SpectroMax Gemini EM Microplate Reader). For the metalloproteinase, enzymes were diluted 1:10 in enzyme specific buffer, and for clotting proteases, enzymes were diluted 1:100. Cleavage heatmap was generated using GENE-E (Broad Institute). Michaelis-Menten constants were determined by assessing initial cleavage velocities at different substrate concentrations. The MMP inhibitor Marimatstat (Tocris) was added to the mixture at 100 μM final concentration. To identify the cleavage position by MMP9, C1-NPs were incubated with MMP9 overnight, and the N-terminal cleavage fragment was isolated and analyzed by MALDI. The sequence corresponding to the dominant peak was identified, and the final amino acid was in that sequence represents the P1 position (toward the N-terminal end from scissile bond). For protease resistance assays, various DMNPE: peptide ratios were reacted overnight and purified prior to being added to proteases.
(§3) Light activation of peptides for biochemical studies was performed using a CL-1000 UV Cross-linker (UVP, 8 mW/cm^2). Power density was measured by an OAI 306 UV power meter at 365 nm. Typical exposure time for these studies was 10-30 min. For activation in cell and animal studies, Lumen Dynamics UV system with 365 nm fiber light guide was used (OmniCure 1000, 200 mW/cm^2). For in vivo activation at the tumor site, mice were anesthetized, and the light was guided through an optical cable and placed approximately 3 cm from the flank tumor. Each flank tumor was exposed for 30 s.

[3] = test system: CCD-18Co cell line; assay: Secreted protease activity assay, conditioned media; assay type: cell-based; details: conditioned media from CCD-18Co cells
Method: as §1

[4] = test system: LS174T cells; assay: 3D collagen cancer tissue model, peptide fluorescence in supernatant; assay type: cell-based, human
Method: Next, the activation of the nanosensors in a 3D ECM environment was probed. Forty LS174T cells were embedded in collagen I together with veiled or unmodified nanosensors (FIG. 4A). The constructs were monitored for protease activity by collecting the supernatant and measuring liberated peptide fragments under different conditions: L-amino acid peptide substrates were compared to D-amino acid counterparts to measure nonspecific background, and the role of DMPNE veiling was measured.
In order to correlate regions of light-activation with protease activity measurements, light-activated rhodamine dye was included to visualize regions exposed to light (FIG. 12A). To explore the ability to monitor protease activity with spatial and temporal control, only the left half of the gels was illuminated.
LS174T cells were encapsulated in 2.5 mg/mL collagen hydrogels (rat tail collagen type I, Corning). Imaging was done on Nikon Eclipse Ti Inverted Microscopes and Zeiss Stereoscope Discovery v20. When protease activity was measured, surrounding media was serum-free.

[5] = NP stability in physiological solution (lack of fluorescent dequenching); assay type: in vitro ADME; details: physiological solution (human control serum, FIG. 7C), 37° C., 24 h
Method: Next, whether STREAMs could provide both spatial and temporal control of MMP activity measurements was tested. First, whether the veiled NPs would block protease cleavage until activation by light was evaluated. Due to homoquenching of the fluorescent substrates once assembled on the NPs, protease activity can be monitored by measuring increases in sample fluorescence that occurs from peptide proteolysis (FIG. 7B). NPs were stable in physiological solution at 37° C. over 24 h, as confirmed by a lack of fluorescent dequenching (FIG. 7C).

[6] = molecular target: MMP9 (Homo sapiens, UniProt P14780); assay: In vitro recombinant protease assay (fluorescence dequenching of NP-bound substrate); assay type: biochemical; set-up: purchased Enzo Life Sciences
Method: as §2, §3

[7] = molecular target: T2, MMP7 (Homo sapiens, UniProt P09237); assay: as above; assay type: biochemical; details: unmodified substrate on particle
T2 construct: purchased Enzo Life Sciences
T2 sequence (P09237 95-267): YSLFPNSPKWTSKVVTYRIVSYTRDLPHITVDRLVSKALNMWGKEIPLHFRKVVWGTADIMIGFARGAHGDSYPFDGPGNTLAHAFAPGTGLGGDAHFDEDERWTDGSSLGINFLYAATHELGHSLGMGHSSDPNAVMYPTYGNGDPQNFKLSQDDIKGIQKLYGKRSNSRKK
Method: as §2

[8] = molecular target: T3, MMP14 (Homo sapiens, UniProt P50281); assay: as above; assay type: biochemical; details: unmodified substrate on particle
T3 construct: purchased Enzo Life Sciences
Method: as §2

[9] = molecular target: T4, MMP1 (Homo sapiens, UniProt P03956); assay: as above; assay type: biochemical; details: unmodified substrate on particle
T4 construct: purchased Enzo Life Sciences
T4 sequence (P03956 100-469): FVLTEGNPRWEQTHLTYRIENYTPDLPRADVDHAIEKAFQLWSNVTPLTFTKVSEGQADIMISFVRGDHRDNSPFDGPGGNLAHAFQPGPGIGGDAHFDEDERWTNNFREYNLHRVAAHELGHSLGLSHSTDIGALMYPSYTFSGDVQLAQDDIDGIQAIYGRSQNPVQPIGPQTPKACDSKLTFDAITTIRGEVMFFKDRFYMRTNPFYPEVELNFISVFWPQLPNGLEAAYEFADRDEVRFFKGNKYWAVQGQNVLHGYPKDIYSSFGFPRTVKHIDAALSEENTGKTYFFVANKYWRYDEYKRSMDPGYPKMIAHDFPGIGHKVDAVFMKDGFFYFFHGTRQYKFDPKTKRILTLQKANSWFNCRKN
Method: as §2

MMP9, sequence (P14780 94-707, species assumed): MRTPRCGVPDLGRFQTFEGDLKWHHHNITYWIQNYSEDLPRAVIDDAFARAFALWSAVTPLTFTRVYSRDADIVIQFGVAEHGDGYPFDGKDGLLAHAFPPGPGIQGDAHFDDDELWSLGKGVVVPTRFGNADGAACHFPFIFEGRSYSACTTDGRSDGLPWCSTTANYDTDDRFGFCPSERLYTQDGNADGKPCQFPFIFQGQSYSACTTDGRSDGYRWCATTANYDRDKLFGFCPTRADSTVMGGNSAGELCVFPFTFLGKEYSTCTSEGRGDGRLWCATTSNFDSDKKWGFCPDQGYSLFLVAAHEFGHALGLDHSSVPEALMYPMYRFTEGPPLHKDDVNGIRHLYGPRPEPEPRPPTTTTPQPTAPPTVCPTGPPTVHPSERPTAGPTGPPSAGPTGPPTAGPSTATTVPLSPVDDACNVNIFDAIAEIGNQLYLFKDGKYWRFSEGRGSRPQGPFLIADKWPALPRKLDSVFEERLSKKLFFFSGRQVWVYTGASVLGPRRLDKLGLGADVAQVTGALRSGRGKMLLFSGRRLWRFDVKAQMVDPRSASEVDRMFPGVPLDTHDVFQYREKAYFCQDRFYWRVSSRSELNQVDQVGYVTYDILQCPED

Substance: C1-NPs: Iron oxide NPs functionalized with fluorescein-conjugated peptide substrate C1 at surface valency >20; in vitro protease sensor ({FAM}-[dS][dK]PLGLEEAGC(iron oxide nanoparticle); not fully specified; printed as FAM-sk-PLGLEEA-GC; also: C-terminal Cys coupled to iron oxide nanoparticle)
- cleavage by cell-secreted proteases [1]: peptide cleavage and a dose-dependent increase in fluorescence
- catalytic efficiency ([2]; MMP13, Michaelis-Menten fit): > 10^4 M^−1 s^−1
- cleavage of substrate by MMP13 [2]: most efficient
- cleavage of substrate by MMP13 ([2]; listed as C1-NP): significantly cleaved
- cleavage by cell-secreted proteases [3]: significantly lower compared to LS174T cells
- liberated peptide fluorescence in supernatant ([4]; first day, no light): significantly more fluorescent peptides than those with D-amino acid NPs
- peptide fluorescence in supernatant after light exposure ([4]; left half of gels illuminated, 24 h, 30 s at 200 mW/cm^2): did not exhibit significant changes in peptide fluorescence
- stability (lack of fluorescent dequenching) [5]: stable
- catalytic efficiency ([6]; MMP9, Michaelis-Menten fit): > 10^3 M^−1 s^−1
- cleavage of substrate by MMP9 ([6]; unmodified substrate on particle): significantly cleaved
- cleavage of substrate by MMP7 [7]: significantly cleaved
- cleavage of substrate by MMP14 [8]: able to cleave the substrate
- cleavage of substrate by MMP1 [9]: significantly cleaved
